{
  "source": "paper PMC4341239",
  "about": "“High yield purification of full-length functional hERG K^+ channels produced in Saccharomyces cerevisiae” (Microbial Cell Factories, 2015)",
  "proteins": {"B1": {"name": "hERG-TEV-GFP-His 8 fusion protein (full-length hERG alpha-subunit, Kv11.1) (natural protein, human, UniProt Q12809 1-1159, looked up)", "chain": "MPVRRGHVAPQNTFLDTIIRKFEGQSRKFIIANARVENCAVIYCNDGFCELCGYSRAEVMQRPCTCDFLHGPRTQRRAAAQIAQALLGAEERKVEIAFYRKDGSCFLCLVDVVPVKNEDGAVIMFILNFEVVMEKDMVGSPAHDTNHRGPPTSWLAPGRAKTFRLKLPALLALTARESSVRSGGAGGAGAPGAVVVDVDLTPAAPSSESLALDEVTAMDNHVAGLGPAEERRALVGPGSPPRSAPGQLPSPRAHSLNPDASGSSCSLARTRSRESCASVRRASSADDIEAMRAGVLPPPPRHASTGAMHPLRSGLLNSTSDSDLVRYRTISKIPQITLNFVDLKGDPFLASPTSDREIIAPKIKERTHNVTEKVTQVLSLGADVLPEYKLQAPRIHRWTILHYSPFKAVWDWLILLLVIYTAVFTPYSAAFLLKETEEGPPATECGYACQPLAVVDLIVDIMFIVDILINFRTTYVNANEEVVSHPGRIAVHYFKGWFLIDMVAAIPFDLLIFGSGSEELIGLLKTARLLRLVRVARKLDRYSEYGAAVLFLLMCTFALIAHWLACIWYAIGNMEQPHMDSRIGWLHNLGDQIGKPYNSSGLGGPSIKDKYVTALYFTFSSLTSVGFGNVSPNTNSEKIFSICVMLIGSLMYASIFGNVSAIIQRLYSGTARYHTQMLRVREFIRFHQIPNPLRQRLEEYFQHAWSYTNGIDMNAVLKGFPECLQADICLHLNRSLLQHCKPFRGATKGCLRALAMKFKTTHAPPGDTLVHAGDLLTALYFISRGSIEILRGDVVVAILGKNDIFGEPLNLYARPGKSNGDVRALTYCDLHKIHRDDLLEVLDMYPEFSDHFWSSLEITFNLRDTNMIPGSPGSTELEGGFSRQRKRKLSFRRRTDKDTEQPGEVSALGPGRAGAGPSSRGRPGGPWGESPSSGPSSPESSEDEGPGRSSSPLRLVPFSSPRPPGEPPGGEPLMEDCEKSSDTCNPLSGAFSGVSNIFSFWGDSRGRQYQELPRCPAPTPSLLNIPLSSPGRRPRGDVESRLDALQRQLNRLETRLSADMATVLQLLQRQMTLVPPAYSAVTTPGPGPTSTSPLLPVSPLPTLTLDSLSQVSQFMACEELPPGAPELPQEGPTRRLSLPGQLGALTSQPLHRHGSDPGS", "modifications": "N-glycosylated in S. cerevisiae", "notes": "the fusion is 156 kDa; also called hERG-GFP-His 8; hERG-GFP; source: S. cerevisiae strain PAP1500, induced at 15°C; crude membranes solubilized in FC-12 with cholesteryl-hemisuccinate; not shown: GFP (yEGFP, after a TEV cleavage site), C-terminal, kept; His8, C-terminal, kept"}},
  "molecular_target": "the molecule itself",
  "test": "SEC; fluorescence size exclusion chromatography (FSEC) on Superose 6 10/300 GL; crude membranes solubilized in FC-12 with cholesteryl-hemisuccinate, with 1 uM Astemizole; FSEC buffer 20 mM TRIS-HCl, 0.15 M NaCl, 0.03% DDM; mass by MW standards, amount of detergent in the complex unknown",
  "data": [
    {"protein": "B1", "values": [
      {"measurement": "stoichiometry N", "result": 4}
    ]}
  ]
}
